Reference: article PMC2756588

T1: Abp1, P15891
T1 sequence (P15891 535-592, looked up): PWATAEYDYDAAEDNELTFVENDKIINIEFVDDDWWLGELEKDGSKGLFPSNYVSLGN

T2: Bbc1, P47068
T2 sequence (P47068 1-78, looked up): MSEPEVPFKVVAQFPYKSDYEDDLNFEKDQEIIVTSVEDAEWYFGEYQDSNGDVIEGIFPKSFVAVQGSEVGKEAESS

T3: Boi1, P38041
T3 sequence (P38041 1-86, looked up): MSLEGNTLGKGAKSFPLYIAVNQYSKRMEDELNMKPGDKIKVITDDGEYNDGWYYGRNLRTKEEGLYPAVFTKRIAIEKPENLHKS

T4: Boi2, P39969
T4 sequence (P39969 32-116, looked up): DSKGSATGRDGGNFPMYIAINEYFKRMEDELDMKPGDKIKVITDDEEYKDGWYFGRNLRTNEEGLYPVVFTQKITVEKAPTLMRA

T5: Bud14, P27637
T5 sequence (P27637 247-328, looked up): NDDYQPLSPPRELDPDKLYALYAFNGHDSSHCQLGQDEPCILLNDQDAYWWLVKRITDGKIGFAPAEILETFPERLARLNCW

T6: Bzz1-1, P38822
T6 sequence (P38822 478-572, looked up): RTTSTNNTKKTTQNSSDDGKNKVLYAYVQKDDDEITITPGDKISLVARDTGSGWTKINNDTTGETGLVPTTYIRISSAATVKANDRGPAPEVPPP

T7: Bzz1-2, P38822
T7 sequence (P38822 568-633, looked up): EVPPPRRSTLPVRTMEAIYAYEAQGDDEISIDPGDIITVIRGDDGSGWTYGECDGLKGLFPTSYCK

T8: Cdc25, P04821
T8 sequence (P04821 50-136, looked up): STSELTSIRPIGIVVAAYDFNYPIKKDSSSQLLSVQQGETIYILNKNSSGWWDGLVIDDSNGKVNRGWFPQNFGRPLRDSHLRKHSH

T9: Cyk3, Q07533
T9 sequence (Q07533 1-83, looked up): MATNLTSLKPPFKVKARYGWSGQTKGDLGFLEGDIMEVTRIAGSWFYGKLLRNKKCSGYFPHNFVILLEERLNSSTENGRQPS

T10: Fus1, P11710
T10 sequence (P11710 432-512, looked up): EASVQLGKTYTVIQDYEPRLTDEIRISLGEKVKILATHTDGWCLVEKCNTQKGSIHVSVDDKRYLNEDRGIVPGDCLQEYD

T11: Hof1, Q05080
T11 sequence (Q05080 590-669, looked up): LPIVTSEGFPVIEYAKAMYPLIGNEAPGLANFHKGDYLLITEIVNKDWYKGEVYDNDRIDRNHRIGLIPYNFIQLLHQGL

T12: Hse1, P38753
T12 sequence (P38753 208-285, looked up): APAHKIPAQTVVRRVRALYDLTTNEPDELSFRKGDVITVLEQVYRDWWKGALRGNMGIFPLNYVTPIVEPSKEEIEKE

T13: Lsb1, P53281
T13 sequence (P53281 45-122, looked up): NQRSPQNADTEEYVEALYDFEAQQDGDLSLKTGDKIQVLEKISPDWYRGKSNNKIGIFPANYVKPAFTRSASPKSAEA

T14: Lsb3, P43603
T14 sequence (P43603 385-451, looked up): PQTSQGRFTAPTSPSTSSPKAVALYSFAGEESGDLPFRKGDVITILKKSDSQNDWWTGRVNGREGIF

T15: Lsb4, P32793
T15 sequence (P32793 402-468, looked up): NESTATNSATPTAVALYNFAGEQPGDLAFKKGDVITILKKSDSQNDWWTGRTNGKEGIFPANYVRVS

T16: Myo5, Q04439
T16 sequence (Q04439 1072-1160, looked up): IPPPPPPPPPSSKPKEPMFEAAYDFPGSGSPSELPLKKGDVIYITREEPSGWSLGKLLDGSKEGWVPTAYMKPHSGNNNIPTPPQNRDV

T17: Nbp2, Q12163
T17 sequence (Q12163 103-180, looked up): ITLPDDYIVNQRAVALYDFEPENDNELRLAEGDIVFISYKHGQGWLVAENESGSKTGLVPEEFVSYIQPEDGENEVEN

T18: Pex13, P80667
T18 sequence (P80667 295-386, looked up): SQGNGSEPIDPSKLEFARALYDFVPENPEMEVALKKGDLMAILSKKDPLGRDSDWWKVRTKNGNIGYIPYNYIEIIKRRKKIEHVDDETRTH

T19: Pin3, Q06449
T19 sequence (Q06449 53-122, looked up): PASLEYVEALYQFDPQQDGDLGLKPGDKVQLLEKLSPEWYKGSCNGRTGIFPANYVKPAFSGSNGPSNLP

T20: Sla1-2, P32790
T20 sequence (P32790 60-140, looked up): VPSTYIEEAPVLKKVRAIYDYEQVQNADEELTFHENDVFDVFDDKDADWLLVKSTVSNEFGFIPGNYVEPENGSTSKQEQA

T21: Sla1-3, P32790
T21 sequence (P32790 344-424, looked up): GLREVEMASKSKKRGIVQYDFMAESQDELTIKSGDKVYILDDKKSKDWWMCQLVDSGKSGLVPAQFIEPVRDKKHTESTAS


What was measured:
Experiment in all cases: SPOT array
[1] = target: T1, Abp1, P15891; settings: median of control spots 935
[2] = target: T2, Bbc1, P47068; settings: median of control spots 796
[3] = target: Bem1-1, P29366; settings: median of control spots 4282
Sequence of Bem1-1, P29366 (P29366 55-141): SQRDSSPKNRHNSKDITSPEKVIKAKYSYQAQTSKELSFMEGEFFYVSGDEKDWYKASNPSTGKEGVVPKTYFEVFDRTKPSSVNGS

[4] = target: Bem1-2, P29366; settings: median of control spots 4347
Sequence of Bem1-2, P29366 (P29366 139-227): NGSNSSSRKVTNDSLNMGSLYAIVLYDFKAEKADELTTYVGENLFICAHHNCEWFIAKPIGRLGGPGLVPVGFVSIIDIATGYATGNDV

[5] = target: T3, Boi1, P38041; settings: median of control spots 1162
[6] = target: T4, Boi2, P39969; settings: median of control spots 1161
[7] = target: T5, Bud14, P27637; settings: median of control spots 956
[8] = target: T6, Bzz1-1, P38822; settings: median of control spots 4446
[9] = target: T7, Bzz1-2, P38822; settings: median of control spots 4538
[10] = target: T8, Cdc25, P04821; settings: median of control spots 969
[11] = target: T9, Cyk3, Q07533; settings: median of control spots 1451
[12] = target: T10, Fus1, P11710; settings: median of control spots 1200
[13] = target: GST; settings: median of control spots 978
[14] = target: T11, Hof1, Q05080; settings: median of control spots 4086
[15] = target: T12, Hse1, P38753; settings: median of control spots 1727
[16] = target: T13, Lsb1, P53281; settings: median of control spots 388
[17] = target: T14, Lsb3, P43603; settings: median of control spots 406
[18] = target: T15, Lsb4, P32793; settings: median of control spots 397
[19] = target: Myo3, P36006; settings: median of control spots 468
[20] = target: T16, Myo5, Q04439; settings: median of control spots 471
[21] = target: T17, Nbp2, Q12163; settings: median of control spots 357
[22] = target: T18, Pex13, P80667; settings: median of control spots 1341
[23] = target: T19, Pin3, Q06449; settings: median of control spots 2171
[24] = target: Rvs167, P39743; settings: median of control spots 2707
Sequence of Rvs167, P39743 (P39743 419-482): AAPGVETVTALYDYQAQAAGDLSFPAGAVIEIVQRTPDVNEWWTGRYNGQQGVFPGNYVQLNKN

[25] = target: Sho1, P40073; settings: median of control spots 1148
Sequence of Sho1, P40073 (P40073 287-367): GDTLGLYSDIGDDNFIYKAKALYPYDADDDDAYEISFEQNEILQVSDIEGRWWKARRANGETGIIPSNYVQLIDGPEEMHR

[26] = target: T20, Sla1-2, P32790; settings: median of control spots 712
[27] = target: T21, Sla1-3, P32790; settings: median of control spots 5475

Binder	SPOT intensity [1]	SPOT intensity [2]	SPOT intensity [3]	SPOT intensity [4]	SPOT intensity [5]	SPOT intensity [6]	SPOT intensity [7]	SPOT intensity [8]	SPOT intensity [9]	SPOT intensity [10]	SPOT intensity [11]	SPOT intensity [12]	SPOT intensity [13]	SPOT intensity [14]	SPOT intensity [15]	SPOT intensity [16]	SPOT intensity [17]	SPOT intensity [18]	SPOT intensity [19]	SPOT intensity [20]	other results
IPSRPAPKPPSSASA	54	121	2	2680	0	0	0	6	0	0	3	1	0	0	1	493	10	21	575	447	SPOT intensity [21]: 1230; SPOT intensity [22]: 873; SPOT intensity [23]: 7; SPOT intensity [24]: 1; SPOT intensity [25]: 0; SPOT intensity [26]: 0; SPOT intensity [27]: 29
PPPPPPPPPPPLPQS	0	0	0	0	0	0	0	2	5	0	0	2	0	1	0	0	0	0	557	489	SPOT intensity [21]: 0; SPOT intensity [22]: 3; SPOT intensity [23]: 0; SPOT intensity [24]: 0; SPOT intensity [25]: 0; SPOT intensity [26]: 0; SPOT intensity [27]: 0
PPPPPPPPPPLPQSL	0	0	0	1	0	0	0	5	2	0	1	0	1	5	0	0	0	0	275	263	SPOT intensity [21]: 0; SPOT intensity [22]: 28; SPOT intensity [23]: 0; SPOT intensity [24]: 0; SPOT intensity [25]: 0; SPOT intensity [26]: 0; SPOT intensity [27]: 6

Further lines, with some results ahead:

SPOT intensity [1]	SPOT intensity [2]	SPOT intensity [3]	SPOT intensity [4]	SPOT intensity [5]	SPOT intensity [6]	SPOT intensity [7]	SPOT intensity [8]	SPOT intensity [9]	SPOT intensity [10]	SPOT intensity [11]	SPOT intensity [12]	SPOT intensity [13]	SPOT intensity [14]	SPOT intensity [15]	SPOT intensity [16]	SPOT intensity [17]	SPOT intensity [18]	SPOT intensity [19]	SPOT intensity [20]	Binder	other results
0	0	0	6	1	0	0	3	0	1	1	0	0	1	0	0	0	0	230	325	LPPPPPPPPPPPLPQ	SPOT intensity [21]: 0; SPOT intensity [22]: 3; SPOT intensity [23]: 0; SPOT intensity [24]: 0; SPOT intensity [25]: 0; SPOT intensity [26]: 0; SPOT intensity [27]: 4
0	0	0	2	0	1	0	0	1	0	2	0	1	1	0	0	0	0	490	132	AVPPPPPPPPLPESL	SPOT intensity [21]: 1; SPOT intensity [22]: 12; SPOT intensity [23]: 0; SPOT intensity [24]: 0; SPOT intensity [25]: 0; SPOT intensity [26]: 0; SPOT intensity [27]: 3
193	316	0	7700	0	0	0	0	10	0	0	0	0	0	2	692	41	78	527	339	KFIPSRPAPKPPSSA	SPOT intensity [21]: 2510; SPOT intensity [22]: 221; SPOT intensity [23]: 8; SPOT intensity [24]: 7; SPOT intensity [25]: 47; SPOT intensity [26]: 0; SPOT intensity [27]: 199
